From doi:10.1101/2021.11.20.466133

Experiments:
[1] = target: Mycobacterium smegmatis DNA integrity scanning protein (MsDisA), c-di-AMP synthase (Mycobacterium smegmatis mc2155); experiment: negative-stain TEM
[2] = target: Mycobacterium smegmatis DNA integrity scanning protein (MsDisA), c-di-AMP synthase (Mycobacterium smegmatis mc2155); experiment: SEC-MALS
[3] = target: Mycobacterium smegmatis DNA integrity scanning protein (MsDisA), c-di-AMP synthase (Mycobacterium smegmatis mc2155); experiment: cryo-EM structure
[4] = target: MsDisA_(1-316) (domains 1 and 2) (Mycobacterium smegmatis mc2155); experiment: SEC-MALS
[5] = target: MsDisA_(1-158) (only N-terminal domain-1) (Mycobacterium smegmatis mc2155); experiment: SEC-MALS
[6] = target: MsDisA_(132-372) (domains 2 and 3) (Mycobacterium smegmatis mc2155); experiment: SEC-MALS

In the case of “Mycobacterium smegmatis DNA integrity scanning protein (MsDisA), c-di-AMP synthase (enzyme)”, the stoichiometry N [1] is reported as 8, the stoichiometry N [2] is reported as 8 and the stoichiometry N [3] is reported as 8.

“MsDisA_(1-316) (domains 1 and 2) (domain or fragment)” was tested, and the stoichiometry N [4] was 8.

“MsDisA_(1-158) (only N-terminal domain-1) (domain or fragment)” showed a stoichiometry N [5] of 8.

“MsDisA_(132-372) (domains 2 and 3) (domain or fragment)” was tested, and the stoichiometry N [6] was 2.
